Results published in patent US20210047427A1 (Takeda / Millennium, published 2021).

Target: T1, cynomolgus CD38 (cynomolgus monkey, UniProt Q5VAN0 1-301)
T1 construct: In the assays it is native CD38 on cynomolgus monkey blood lymphocytes; also called cyno CD38; monkey CD38
Test: Flow cytometry of cynomolgus monkey whole blood stained with labelled AB79. MFI converted to MOEF with Rainbow Beads. NK (CD3-, CD159a+), B (CD3-, CD20+) and T (CD3+) cells; 3 individuals, mean with SD.
Description: The flow cytometric measurements were standardized and the signals are reported in molecules of equivalent soluble fluorescence (MOEF). […] Direct comparison of CD38 expression levels on monkey NK cells (CD3−, CD159a+), B cells (CD3−, CD20+) and T cells (CD3+) and human NK cells (CD3−, CD16/CD56+), B cells (CD3−, CD19+) and T cells (CD3+) were evaluated by flow cytometry.
An aliquot of blood (100 μL) was mixed with appropriate volume of antibody (FIG. 1) and incubated for 15-20 minutes at RT in the dark. After incubation, 1 mL of BD FACS lyse (1×; BD Biosciences; San Jose, Calif.) was added to lyse red blood cells and the cells incubated for 10 minutes at RT in the dark, then centrifuged, decanted and resuspended in 1 mL of staining buffer with bovine serum albumin (BD Biosciences).

T1 sequence (Q5VAN0 whole entry): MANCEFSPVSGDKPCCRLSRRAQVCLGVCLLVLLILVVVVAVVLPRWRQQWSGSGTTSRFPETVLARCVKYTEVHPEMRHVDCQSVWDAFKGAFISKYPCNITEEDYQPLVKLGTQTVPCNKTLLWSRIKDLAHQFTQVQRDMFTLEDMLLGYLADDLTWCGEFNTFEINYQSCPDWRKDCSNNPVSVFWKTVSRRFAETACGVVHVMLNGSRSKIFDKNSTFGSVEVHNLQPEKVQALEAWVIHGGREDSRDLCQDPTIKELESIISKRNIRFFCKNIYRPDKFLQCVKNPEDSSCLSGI

- binding result: binds
B1: AB79 (antibody, human IgG1, lambda, V domains shown)
VH: EVQLLESGGGLVQPGGSLRLSCAASGFTFDDYGMSWVRQAPGKGLEWVSDISWNGGKTHYVDSVKGQFTISRDNSKNTLYLQMNSLRAEDTAVYYCARGSLFHDSSGFYFGHWGQGTLVTVSS
VL: QSVLTQPPSASGTPGQRVTISCSGSSSNIGDNYVSWYQQLPGTAPKLLIYRDSQRPSGVPDRFSGSKSGTSASLAISGLRSEDEADYYCQSYDSSLSGSVFGGGTKLTVLG
